{
  "source": "paper PMC6265302",
  "about": "“Widespread bacterial lysine degradation proceeding via glutarate and L-2-hydroxyglutarate” (Nature Communications, 2018)",
  "proteins": {"B1": {"name": "GabT (Escherichia coli K-12) (protein)", "chain": "MNSNKELMQRRSQAIPRGVGQIHPIFADRAENCRVWDVEGREYLDFAGGIAVLNTGHLHPKVVAAVEAQLKKLSHTCFQVLAYEPYLELCEIMNQKVPGDFAKKTLLVTTGSEAVENAVKIARAATKRSGTIAFSGAYHGRTHYTLALTGKVNPYSAGMGLMPGHVYRALYPCPLHGISEDDAIASIHRIFKNDAAPEDIAAIVIEPVQGEGGFYASSPAFMQRLRALCDEHGIMLIADEVQSGAGRTGTLFAMEQMGVAPDLTTFAKSIAGGFPLAGVTGRAEVMDAVAPGGLGGTYAGNPIACVAALEVLKVFEQENLLQKANDLGQKLKDGLLAIAEKHPEIGDVRGLGAMIAIELFEDGDHNKPDAKLTAEIVARARDKGLILLSCGPYYNVLRILVPLTIEDAQIRQGLEIISQCFDEAKQ", "notes": "full ORF, N-terminal 6xHis tag (pET28a), expressed in E. coli BL21(DE3); assayed coupled with GabD"}, "B2": {"name": "PatA (Escherichia coli K-12) (protein)", "chain": "MNRLPSSASALACSAHALNLIEKRTLDHEEMKALNREVIEYFKEHVNPGFLEYRKSVTAGGDYGAVEWQAGSLNTLVDTQGQEFIDCLGGFGIFNVGHRNPVVVSAVQNQLAKQPLHSQELLDPLRAMLAKTLAALTPGKLKYSFFCNSGTESVEAALKLAKAYQSPRGKFTFIATSGAFHGKSLGALSATAKSTFRKPFMPLLPGFRHVPFGNIEAMRTALNECKKTGDDVAAVILEPIQGEGGVILPPPGYLTAVRKLCDEFGALMILDEVQTGMGRTGKMFACEHENVQPDILCLAKALGGGVMPIGATIATEEVFSVLFDNPFLHTTTFGGNPLACAAALATINVLLEQNLPAQAEQKGDMLLDGFRQLAREYPDLVQEARGKGMLMAIEFVDNEIGYNFASEMFRQRVLVAGTLNNAKTIRIEPPLTLTIEQCELVIKAARKALAAMRVSVEEA", "notes": "purified enzyme, cloning not described in main text; assayed coupled with PatD"}, "B3": {"name": "CsiD (Escherichia coli K-12) (protein)", "chain": "MNALTAVQNNAVDSGQDYSGFTLTPSAQSPRLLELTFTEQTTKQFLEQVAEWPVQALEYKSFLRFRVAKILDDLCANQLQPLLLKTLLNRAEGALLINAVGVDDVKQADEMVKLATAVAHLIGRSNFDAMSGQYYARFVVKNVDNSDSYLRQPHRVMELHNDGTYVEEITDYVLMMKIDEQNMQGGNSLLLHLDDWEHLDNYFRHPLARRPMRFAAPPSKNVSKDVFHPVFDVDQQGRPVMRYIDQFVQPKDFEEGVWLSELSDAIETSKGILSVPVPVGKFLLINNLFWLHGRDRFTPHPDLRRELMRQRGYFAYASNHYQTHQ", "notes": "full ORF, N-terminal 6xHis tag (pET28a), expressed in E. coli BL21(DE3); Fe(II); homotetramer"}},
  "key": {"purified protein [1]": {"substrate": "NCCCC(=O)O", "experiment": "purified protein", "conditions": "coupled with GabD (rate-limiting dehydrogenase), 5 mM α-ketoglutarate, 500 µM NADP+, pH 8.0, room temperature"}, "purified protein [2]": {"substrate": "NCCCCC(=O)O", "experiment": "purified protein", "format": "biochemical, Escherichia coli", "conditions": "coupled with GabD (rate-limiting dehydrogenase), 5 mM α-ketoglutarate, 500 µM NADP+, pH 8.0, room temperature"}, "purified protein [3]": {"substrate": "NCCCCCN", "experiment": "purified protein", "format": "biochemical, Escherichia coli", "conditions": "coupled with PatD (rate-limiting dehydrogenase), 5 mM α-ketoglutarate, 500 µM NAD+, pH 8.0, room temperature"}, "purified protein [4]": {"substrate": "NCCCCN", "experiment": "purified protein", "format": "biochemical, Escherichia coli", "conditions": "coupled with PatD (rate-limiting dehydrogenase), 5 mM α-ketoglutarate, 500 µM NAD+, pH 8.0, room temperature"}, "[5]": {"substrate": "O=C(O)CCC(=O)C(=O)O", "experiment": "O2 consumption, Clark electrode", "format": "biochemical, Escherichia coli", "conditions": "5 mM glutarate, 4 µM Fe(NH4)2SO4, 400 µM ascorbate, MOPS pH 7.2, 30 °C"}, "[6]": {"substrate": "O=C(O)CCCC(=O)O", "experiment": "O2 consumption, Clark electrode", "format": "biochemical, Escherichia coli", "conditions": "1 mM α-ketoglutarate, 4 µM Fe(NH4)2SO4, 400 µM ascorbate, MOPS pH 7.2, 30 °C"}},
  "data": [
    {"protein": "B1", "values": [
      {"measurement": "Km", "setting": "purified protein [1]", "result": "197 ± 27", "unit": "µM"},
      {"measurement": "Km", "setting": "purified protein [2]", "result": "439 ± 29", "unit": "µM"}
    ]},
    {"protein": "B2", "values": [
      {"measurement": "Km", "setting": "purified protein [3]", "result": "0.37 ± 0.05", "unit": "mM"},
      {"measurement": "Km", "setting": "purified protein [4]", "result": "1.43 ± 0.07", "unit": "mM"}
    ]},
    {"protein": "B3", "values": [
      {"measurement": "Km", "setting": "[5]", "result": "100 ± 7", "unit": "µM"},
      {"measurement": "Km", "setting": "[6]", "result": "650 ± 20", "unit": "µM"}
    ]}
  ]
}
